Experimental findings from patent EP0842948B1 (MOCHIDA PHARMACEUTICAL CO., LTD., dated 2009) are described below.

Test [1] deals with extracellular domain of the Fas ligand derived from COS-1 cell (human). In words: cell-based or functional assay.
Test [2] has as its target T1, human Fas ligand expressed on 1A12 cells (human, UniProt P48023 1-281).
T1 construct: whole, on cells; also called Fas ligand antigen on 1A12 transfectant cells
T1 sequence (looked up): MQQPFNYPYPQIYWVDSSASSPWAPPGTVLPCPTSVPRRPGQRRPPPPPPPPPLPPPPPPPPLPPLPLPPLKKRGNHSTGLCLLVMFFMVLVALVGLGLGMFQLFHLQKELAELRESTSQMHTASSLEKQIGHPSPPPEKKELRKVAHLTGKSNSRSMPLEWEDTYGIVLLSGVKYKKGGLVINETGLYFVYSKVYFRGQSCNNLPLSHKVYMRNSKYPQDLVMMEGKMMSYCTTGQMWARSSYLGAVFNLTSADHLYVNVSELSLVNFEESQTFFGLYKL
The test is described as follows: competitive binding against 125I-labelled mouse F919 on 1A12 cells.

Several values for one entry are separate records, joined by “and”; a condition that tells them apart may be missing. Equal values may be shown once.

B1: mouse monoclonal antibody F919-9-18 (antibody, V domains shown)
VH: QIQLVQSGPELKKPGETVKISCKASGYTFTEYPMHWVKQAPGKGFKWMGMIYTDTGEPSYAEEFKGRFAFSLETSASTAYLQINFLKNEDTATYFCVRFYWDYFDYWGQGTTLTVSS
VL: DIQMTQTTSSLSASLGDRVTISCRASQDISNYLNWYQQKPDGTVKLLIYYTSRLHSGVPSRFSGSGSGTNYSLTISNLEQGDIATYFCQQGSTLPWTFGGGTKLEIK
For the molecule B1, the apoptosis-suppression activity (fold against F883-1-1) in test [1] turned out to be 100. The Ka in test [2] is 3e+08 M⁻¹ and 4e+08 M⁻¹.
